In patent US11643670B2, “Methods of enhancing chromosomal homologous recombination” (Massachusetts Institute of Technology, priority 2018, dated 2023):

Legend:
[1] = system: Chd2 locus; test: Chd2^R1684H knock-in by PNI/CPI with RAD51, genotyping of F0 pups; assay type: in vivo, mouse; conditions: 18 F0 pups, PNI and CPI, RAD51 protein 10 ng/μL
Method: (§1) tracrRNA, crRNAs, and ssODNs were synthesized by Integrated DNA Technologies (TABLE 1). All injection mixtures were prepared in a final volume of 50 μL according to the following methodology: Using RNase-free water, reagents, and consumables, crRNA (final concentration 0.61 μM), tracrRNA (final concentration 0.61 μM), and ultrapure Tris-HCl, pH 7.39 (final concentration 10 mM, ThermoFisher) were mixed and incubated at 95° C. for 5 minutes. The mixtures were cooled to room temperature for 10 minutes on the benchtop, and then, EnGen Cas9-NLS S. pyogenes (New England Biolabs) was added to a final concentration of 30 ng/μL. The mixtures were incubated at 37° C. for 15 minutes before adding any remaining components: ssODN (final concentration 3 ng/μL or 30 ng/μL), RAD51 (Creative Biomart, final concentration 10 ng/μL). Injection mixtures were stored on ice and briefly heated to 37° C. prior to injection. For experiments utilizing RS-1, embryos were cultured in KSOM-AA (EMD Millipore MR-121-D) with […] RS-1 (Sigma) dissolved in DMSO or DMSO (Sigma, 1:1000) for 24 hours, washed, and cultured in EmbryoMax FHM HEPES Buffered Medium (Sigma) until collection for genotyping.
Female mice (4-5 weeks old, C57BL/6N) were superovulated by IP injection of PMS (5 IU/mouse, three days prior to microinjection) and hCG (5 IU/mouse, 47 hours after PMS injection) and then paired with males. […]

[2] = system: maternal Chd2 locus; test: Donor-free interchromosomal homologous recombination (ICHR) in IVF-derived Chd2^R1684H/+ embryos; assay type: cell-based, mouse
Method: as §1
For experiments using wildtype recombinant proteins, the following proteins were used: RAD51 (Creative Biomart RAD51-134H), USP1/WDR48 (Creative Biomart USP1&WDR48-1067H), BCCIP (Origene TP303061), XRCC1 (TP304952), XRCC4 (Origene TP312684), DMC1 (Origene TP318311). For experiments using mutant RAD51, custom RAD51 preparations were produced by Creative Biomart according to their standard protocol for producing the wildtype RAD51 used in all other experiments. Mutant DNA sequences used for cloning are described in TABLE 2. All RAD51 mutants were modeled in human RAD51 transcript variant 4 (NCBI accession NM_001164269), as this is the transcript variant of the wildtype RAD51-134H protein used in all other experiments.
In vitro fertilization was performed using FERTIUP® Mouse Preincubation Medium and CARD MEDIA (Kyudo Company) according to the manufacturer's protocol. Non-virgin Chd2^R1684H/R1684H males that were >8 weeks old were used as sperm donors. Following IVF, embryos were cultured for 8 hours and then injected using the PNI protocol described below.
For all experiments except those described in FIG. 6, the male pronucleus was injected. Injections performed for the CPI portion of FIG. 6 were targeted to the cytoplasm. All microinjections were performed using a Narishige Micromanipulator, Nikon Eclipse TE2000-S microscope, and Eppendorf 5242 microinjector. Individual zygotes were injected with 1-2 pL of injection mixture using an “automatic” injection mode set according to needle size and adjusted for clear increase in pronuclear volume. Following injections, cells were cultured in KSOM-AA until collection for genotyping. For experiments giving rise to F0 animals, embryos were surgically implanted into pseudopregnant CD-1 females (Charles River Laboratories, Strain Code 022) 24-hours post-injection and allowed to develop normally until natural birth.
Embryos were collected at morula-to-blastocyst stage in 4 μL nuclease-free water. After collection, 4 μL of 2× embryo digestion buffer was added to each sample (final concentrations: 125 μg/mL proteinase K, 100 mM Tris-HCl pH 8.0, 100 mM KCl, 0.02% gelatin, 0.45% Tween-20, 60 μg/mL yeast tRNA) and embryos were lysed for 1 hour at 56° C. Proteinase K was inactivated via incubation at 95° C. for 10 minutes and DNA was stored at −20° C. until use.
Chd2^R1684H genotyping was performed via a two-step, nested approach. Except for experiments described in FIGS. 3A-3G, all 8 μL of embryo DNA were used as input for the initial, long round of PCR. Genotyping of mouse pups and adult animals was performed using 2 μL of purified tail DNA. For all embryo genotyping, reactions mixtures were set up in a UV-sterilized laminar flow hood using sterile reagents and filter tips to avoid contamination. […]

B1: RAD51: recombinant human strand exchange protein RAD51 (Creative Biomart RAD51-134H), transcript variant 4 (protein, UniProt Q06609 2-339, looked up)
DNA repair protein RAD51 …: AMQMQLEANADTSVEEESFGPQPISRLEQCGINANDVKKLEEAGFHTVEAVAYAPKKELINIKGISEAKADKILAEAAKLVPMGFTTATEFHQRRSEIIQITTGSKELDKLLQGGIETGSITEMFGEFRTGKTQICHTLAVTCQLPIDRGGGEGKAMYIDTEGTFRPERLLAVAERYGLSGSDVLDNVAYARAFNTDHQTQLLYQASAMMVESRYALLIVDSATALYRTDYSGRGELSARQMHLARFLRMLLRLADEFGVAVVITNQVVAQVDGAAMFAADPKKPIGGNIIAHASTTRLYLRKGRGETRICKIYDSPCLPEAEAMFAINADGVGDAKD
homozygous KI efficiency [1]: 55.5%
overall KI efficiency (pups with ≥1 KI allele/total pups) [1]: 61.1%
ICHR observed, share of injected embryos ([2]; PNI at ~8 hpf of Cas9/crRNA/tracrRNA, no donor, 26% in control injected embryos): 74%
indel-to-ICHR ratio ([2]; compared to control embryos): drastic decrease
overall indel rate ([2]; compared to control embryos): drastic decrease
